Laboratory results from article doi:10.1101/2022.05.13.491800 (bioRxiv, 2022).

B1: Smc5 (natural protein, S. cerevisiae, UniProt Q08204 1-1093, looked up)
chain: MTSLIDLGRYVERTHHGEDTEPRSKRVKIAKPDLSSFQPGSIIKIRLQDFVTYTLTEFNLSPSLNMIIGPNGSGKSTFVCAVCLGLAGKPEYIGRSKKVEDFIKNGQDVSKIEITLKNSPNVTDIEYIDARDETIKITRIITRSKRRSDYLINDYQVSESVVKTLVAQLNIQLDNLCQFLSQERVEEFARLKSVKLLVETIRSIDASLLDVLDELRELQGNEQSLQKDLDFKKAKIVHLRQESDKLRKSVESLRDFQNKKGEIELHSQLLPYVKVKDHKEKLNIYKEEYERAKANLRAILKDKKPFANTKKTLENQVEELTEKCSLKTDEFLKAKEKINEIFEKLNTIRDEVIKKKNQNEYYRGRTKKLQATIISTKEDFLRSQEILAQTHLPEKSVFEDIDIKRKEIINKEGEIRDLISEIDAKANAINHEMRSIQRQAESKTKSLTTTDKIGILNQDQDLKEVRDAVLMVREHPEMKDKILEPPIMTVSAINAQFAAYLAQCVDYNTSKALTVVDSDSYKLFANPILDKFKVNLRELSSADTTPPVPAETVRDLGFEGYLSDFITGDKRVMKMLCQTSKIHTIPVSRRELTPAQIKKLITPRPNGKILFKRIIHGNRLVDIKQSAYGSKQVFPTDVSIKQTNFYQGSIMSNEQKIRIENEIINLKNEYNDRKSTLDALSNQKSGYRHELSELASKNDDINREAHQLNEIRKKYTMRKSTIETLREKLDQLKREARKDVSQKIKDIDDQIQQLLLKQRHLLSKMASSMKSLKNCQKELISTQILQFEAQNMDVSMNDVIGFFNEREADLKSQYEDKKKFVKEMRDTPEFQSWMREIRSYDQDTKEKLNKVAEKYEEEGNFNLSFVQDVLDKLESEIAMVNHDESAVTILDQVTAELRELEHTVPQQSKDLETIKAKLKEDHAVLEPKLDDIVSKISARFARLFNNVGSAGAVRLEKPKDYAEWKIEIMVKFRDNAPLKKLDSHTQSGGERAVSTVLYMIALQEFTSAPFRVVDEINQGMDSRNERIVHKAMVENACAENTSQYFLITPKLLTGLHYHEKMRIHCVMAGSWIPNPSEDPKMIHFGETSNYSFD
B2: Smc6 (natural protein, S. cerevisiae, UniProt Q12749 1-1114, looked up)
chain: MISTTISGKRPIEQVDDELLSLTAQQENEEQQQQRKRRRHQFAPMTQFNSNTLDEDSGFRSSSDVATADQDNFLEESPSGYIKKVILRNFMCHEHFELELGSRLNFIVGNNGSGKSAILTAITIGLGAKASETNRGSSLKDLIREGCYSAKIILHLDNSKYGAYQQGIFGNEIIVERIIKRDGPASFSLRSENGKEISNKKKDIQTVVDYFSVPVSNPMCFLSQDAARSFLTASTSQDKYSHFMKGTLLQEITENLLYASAIHDSAQENMALHLENLKSLKAEYEDAKKLLRELNQTSDLNERKMLLQAKSLWIDVAHNTDACKNLENEISGIQQKVDEVTEKIRNRQEKIERYTSDGTTIEAQIDAKVIYVNEKDSEHQNARELLRDVKSRFEKEKSNQAEAQSNIDQGRKKVDALNKTIAHLEEELTKEMGGDKDQMRQELEQLEKANEKLREVNNSLVVSLQDVKNEERDIQHERESELRTISRSIQNKKVELQNIAKGNDTFLMNFDRNMDRLLRTIEQRKNEFETPAIGPLGSLVTIRKGFEKWTRSIQRAISSSLNAFVVSNPKDNRLFRDIMRSCGIRSNIPIVTYCLSQFDYSKGRAHGNYPTIVDALEFSKPEIECLFVDLSRIERIVLIEDKNEARNFLQRNPVNVNMALSLRDRRSGFQLSGGYRLDTVTYQDKIRLKVNSSSDNGTQYLKDLIEQETKELQNIRDRYEEKLSEVRSRLKEIDGRLKSTKNEMRKTNFRMTELKMNVGKVVDTGILNSKINERKNQEQAIASYEAAKEELGLKIEQIAQEAQPIKEQYDSTKLALVEAQDELQQLKEDINSRQSKIQKYKDDTIYYEDKKKVYLENIKKIEVNVAALKEGIQRQIQNACAFCSKERIENVDLPDTQEEIKRELDKVSRMIQKAEKSLGLSQEEVIALFEKCRNKYKEGQKKYMEIDEALNRLHNSLKARDQNYKNAEKGTCFDADMDFRASLKVRKFSGNLSFIKDTKSLEIYILTTNDEKARNVDTLSGGEKSFSQMALLLATWKPMRSRIIALDEFDVFMDQVNRKIGTTLIVKKLKDIARTQTIIITPQDIGKIADIDSSGVSIHRMRDPERQNNSNFYN

What was measured:
Smc6 = target: B2; test: co-purification
Smc5 = target: B1; test: SEC

Row | binding result (Smc6) | stoichiometry N (Smc5) | Binder
1 | binds |  | B1
2 |  | ~1 | Nse5 (natural protein, S. cerevisiae, UniProt Q03718 1-556, looked up) MDGALINSVLYVSPRNGAHYFVELTEKHLLAFEMLNSMCLLENYDHVLLFLECQFGKSHNLAVIPFDIILVLFTLSTLSEYYKEPILRANDPYNTSRETLSRRALKLLQKYLAILKEFDSEQYNLYDLELLRCQFFLAIDTLTPKKQKWGFDRFRRTKSESGVTYRQNASVDPELDQAKTFKNPYRSYISCLEQRNTILGNRLLNLKLNEPGEFINMILWTLSNSLQESTPLFLSSHEIWMPLLEILIDLFSCRQDYFIQHEVAQNVSKSLFVQRLSESPLAVFFESLNTRNFANRFSEYVFLNCDYKLPSDNYATPVHPVYNGENTIVDTYIPTIKCSPLYKSQKSLALRRKLIGSCFKLLLRVPDGHRLITPRIVADDVIQGISRTLASFNDILQFKKFFMTENLSQESYFIPLLAEGTLSEILKDTQECVVILTLVENLSDGVSFCNEVIGLVKSKCFAFTEQCSQASYEEAVLNIEKCDVCLLVLLRYLLHLIGTEAILDAKEQLEMLHAIEKNDSGRRQWAKALNLGNDPPLLYPIVSQMFGVHDKSVIIE
3 |  | ~1 | Nse6 (natural protein, S. cerevisiae, UniProt P40026 1-464, looked up) MGSVNSSPNEEFETVPDSQISGFDSPLIPTSVGSYFRDDDDDEKVHPNFISDPENDSLNSDEEFSSLENSDLNLSGAKAESGDDFDPILKRTIISKRKAPSNNEDEEIVKTPRKLVNYVPLKIFNLGDSFDDTITTTVAKLQDLKKEILDSPRSNKSIVITSNTVAKSELQKSIKFSGSIPEIYLDVVTKETISDKYKDWHFISKNCHYEQLMDLEMKDTAYSFLFGSSRSQGKVPEFVHLKCPSITNLLVLFGVNQEKCNSLKINYEKKENSRYDNLCTIFPVNKMLKFLMYFYSDDDNDDVREFFLKAFICLILDRKVFNAMESDHRLCFKVLELFNEAHFINSYFEIVDKNDFFLHYRLLQIFPHLQSALLRRRFSEKQGRTETIQQNIIKEFNEFFDCKNYKNLLYFILTMYGSKFIPFGPKCQVTEYFKDCILDISNETTNDVEISILKGILNLFSKIR
4 |  | ~1 | B2
